Data reported in the Immune Epitope Database (IEDB).

What was measured:
HLA-A*02:01 [1] = experiment: IEDB peptide-MHC binding, purified MHC/competitive/radioactivity; filed as Kd, often an IC50 or EC50 that approximates it; ≥ and ≤ were set here for values at or beyond the usual limits of such assays; conditions: source organism: Homo sapiens
HLA-A*02:01 [2] = experiment: IEDB peptide-MHC binding, purified MHC/competitive/radioactivity; ≥ and ≤ were set here for values at or beyond the usual limits of such assays; conditions: source organism: Homo sapiens

Kd (HLA-A*02:01 [1]) [µM] | IC50 (HLA-A*02:01 [2]) [µM] | Sequence
≥ 10 |  | AANDPIFVV
≥ 10 |  | AARPDDPTL
≥ 10 |  | ALDLAKKRV
1.35 |  | ALPYWNFAT
 | 0.026 | ALVGLFVLL
≥ 10 |  | ATGRNECDV
≥ 10 |  | CLERDLQRL
 | 0.943 | FVTWHRYHL
≥ 10 |  | GAQGQFPRV
4.54 |  | GTLVALVGL
≥ 10 |  | ITTQHWLGL
≥ 10 |  | LAFLQYRRL
 | 0.385 | LIGNESFAL
1.52 |  | LLAFLQYRRL
3.57 |  | LLSCLGCKI
≥ 10 |  | LLSCLGCKIL
1.35 |  | LLVVMGTLV
≥ 10 |  | NCERKKPPV
≥ 10 |  | NCSVYDFFV

Kd (HLA-A*02:01 [1]) [µM] | IC50 (HLA-A*02:01 [2]) [µM] | Sequence
≥ 10 |  | QGRGQCTEV
2.63 |  | QLGYSYAIDL
≥ 10 |  | QMGRNSMKL
 | 0.676 | QVMSLHNLV
4.54 |  | SAANDPIFV
≥ 10 |  | STFSFRNAL
 | 0.161 | TLDSQVMSL
2.63 |  | TLLVVMGTL
 | 0.357 | TLLVVMGTLV
 | 0.029 | TLVALVGLFV
≥ 10 |  | TTQHWLGLL
7.14 |  | VALVGLFVL
7.14 |  | VCMTVDSLV
 | 0.417 | VLHSFTDAI
 | 0.161 | VTWHRYHLL
≥ 10 |  | WLGLLGPNG
8.33 |  | WMKRFNPPA
≥ 10 |  | YTPLMETHL
